Laboratory results from patent publication US20210317479, “NUCLEIC ACID ASSEMBLIES FOR USE IN TARGETED DELIVERY” (The Broad Institute, Inc., published 2021).

Assays:
SpCas9 [1] = molecular target: T1, SpCas9 (Streptococcus pyogenes, UniProt Q99ZW2 Q99ZW2:1-1368); assay: EMSA; 5x molar Cas9 shifted nanoparticle band into the well; details: sgRNA whose 3' extension hybridises to DNA scaffold
Protocol: The DNA was amplified and purified by Qiagen, and transcribed using the NEB T7 HiScribe kit modified for short RNA production, and purified by PAGE purification. It was then folded with 50 mM HEPES-KOH pH 7.5, 300 mM KCl following the RNA/DNA hybrid folding protocol. The excess staples were purified away from the PB84 with a 100 kDa MWCO filter. A 2% high resolution agarose gel with 1×TAE buffer and 4 mM Mg-acetate was run at 4 C in the cold room at 65V for 180 minutes.
It was observed that the nanoparticle with the RNA staple presented a band at the same size as the all-DNA staple nanoparticle.

SpCas9 [2] = molecular target: T1, SpCas9; assay: EMSA; DX tile band shifted toward well on annealing with Cas9; sgRNA maintained after RNase H; details: sgRNA fused to central RNA staple of DX tile
Protocol: Dx-tiles were made either containing the Gint or broccoli aptamers. To prepare the folded DX-tiles, the components (e.g., DNA scaffold, two flanking/end staples encoding either the Gint (i.e., Gint4.T and Gint21.T) or broccoli aptamers, and central staple) were mixed in equimolar concentrations and allowed to anneal over 2 hours from 95 C to 25 C. The resulting structures were visualized by gel electrophoresis.
Several bands were originally visualized, showing impurities in the production. […] Given that staple 2 spans across the region targeted by the sgRNA and could therefore contribute to misfolding, in a repeat experiment, staple 2 was left out of the folding mixture. This yielded higher folding. Upon addition and annealing with Cas9, the DX tile band was closer to the well on the gel. Addition of RNase H both with and without Cas9 released the HDR template.

T1 sequence (Q99ZW2 whole entry, one chain of several): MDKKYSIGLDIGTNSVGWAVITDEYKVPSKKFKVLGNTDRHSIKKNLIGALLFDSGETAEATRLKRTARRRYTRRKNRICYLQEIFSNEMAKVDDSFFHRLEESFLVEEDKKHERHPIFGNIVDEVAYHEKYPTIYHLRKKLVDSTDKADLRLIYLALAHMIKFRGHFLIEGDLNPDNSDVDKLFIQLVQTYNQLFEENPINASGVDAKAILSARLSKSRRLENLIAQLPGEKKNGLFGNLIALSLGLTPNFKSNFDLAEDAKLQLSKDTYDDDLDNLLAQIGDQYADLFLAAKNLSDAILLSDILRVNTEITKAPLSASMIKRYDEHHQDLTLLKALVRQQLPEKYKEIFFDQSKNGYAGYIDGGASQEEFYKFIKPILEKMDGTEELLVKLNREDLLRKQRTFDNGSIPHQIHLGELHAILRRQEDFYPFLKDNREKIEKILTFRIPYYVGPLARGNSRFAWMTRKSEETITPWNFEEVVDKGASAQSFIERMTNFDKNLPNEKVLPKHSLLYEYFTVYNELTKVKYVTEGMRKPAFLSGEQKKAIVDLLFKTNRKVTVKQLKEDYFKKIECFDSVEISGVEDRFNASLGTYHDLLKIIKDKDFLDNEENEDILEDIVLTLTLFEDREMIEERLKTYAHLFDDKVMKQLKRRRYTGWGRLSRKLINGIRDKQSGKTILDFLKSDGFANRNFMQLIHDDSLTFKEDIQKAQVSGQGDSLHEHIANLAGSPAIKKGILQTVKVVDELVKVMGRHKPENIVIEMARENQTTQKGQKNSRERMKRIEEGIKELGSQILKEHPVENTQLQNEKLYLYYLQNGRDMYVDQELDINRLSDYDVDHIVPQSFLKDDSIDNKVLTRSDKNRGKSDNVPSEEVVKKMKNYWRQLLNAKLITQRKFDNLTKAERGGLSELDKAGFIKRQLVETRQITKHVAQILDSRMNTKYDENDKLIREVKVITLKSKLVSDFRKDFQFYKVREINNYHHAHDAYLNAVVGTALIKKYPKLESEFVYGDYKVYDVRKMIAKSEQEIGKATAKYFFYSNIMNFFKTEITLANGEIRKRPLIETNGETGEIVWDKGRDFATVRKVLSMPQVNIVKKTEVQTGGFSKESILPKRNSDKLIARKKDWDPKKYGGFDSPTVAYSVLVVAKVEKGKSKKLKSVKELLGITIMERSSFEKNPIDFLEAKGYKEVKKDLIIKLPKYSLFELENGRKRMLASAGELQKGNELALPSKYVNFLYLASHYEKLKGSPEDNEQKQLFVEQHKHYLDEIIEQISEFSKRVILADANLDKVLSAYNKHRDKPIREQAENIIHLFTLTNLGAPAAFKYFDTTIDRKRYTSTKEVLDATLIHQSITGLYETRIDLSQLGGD

B1: PCSK9 sgRNA with 3' staple extension (PB84), folded in DNA pentagonal bipyramid (ssRNA)
RNA: GGCUGAUGAGGCCGCACAUGGUUUUAGAGCUAUGCUGUUCUUCGGAACAGCAUAGCAAGUUAAAAUAAGGCUAGUCCGUUAUCAACUUGAAAAAGUGGCACCGAGUCGGUGCAAAAAUCACCCAGAAACGCUGGUGAAAGUGUAUGAGUAUUCAACAUUUCCGUGUCGCCCUUGUUUUUGCUGCAG
- binding result (SpCas9 [1]): binds

B2: EGFP sgRNA-staple 3, in DX tile with HDR DNA scaffold (ssRNA)
RNA: GCUGAAGCACUGCACGCCGUGUUUUAGAGCUAUGCUGUUGAAAAACAGCAUAGCAAGUUAAAAUAAGGCUAGUCCGUUAUCAACUUGAAAAAGUGGCACCGAGUCGGUGCUUUUUCUGGCCCACCCUCAGCCGCUACCCCGACCACAUGAGCCCGUGCC
- binding result (SpCas9 [2]): binds
